Source: publication PMC3675580, “Stabilization, Characterization, and Selective Removal of Cystatin C Amyloid Oligomers*” (The Journal of Biological Chemistry, 2013)
Where “and” joins values, the source holds several entries; their conditions need not be identical. Equal entries are not always repeated. Each block holds one molecule with its values, some of them ahead of it.

Legend:
[1] = target: Mammalian legumain (EC 3.4.22.34) (pig)
[2] = target: stab1 cystatin C (L47C/G69C), disulfide-stabilized monomer (human) (UniProt P01034); experiment: MALDI-TOF MS; isolated oligomers 1 mg/ml in 150 mM ammonium bicarbonate pH 7.8 (nonreducing), matrix 2,6-dihydroxyacetophenone
[3] = target: stab1 cystatin C (L47C/G69C), disulfide-stabilized monomer (human) (UniProt P01034); experiment: native gel or EMSA; agarose gel electrophoresis under native conditions; stab1 cystatin C 0.2 mg/ml (15 uM) in PBS pH 7.4, 0.5 or 1.0 M GdnHCl, 1:1 molar equivalents of DTT, 24 h at 40 C
[4] = target: the molecule itself; experiment: SDS-PAGE in 0.1% SDS of unboiled, nonreduced samples; 1 mg/ml in 50 mM sodium acetate pH 4.0, 100 mM NaCl, 48 C, 900 rpm, 4 h; gel run at 4 C, silver-stained
[5] = target: the molecule itself; experiment: SEC; SEC at the end of the purification of refolded L68Q cystatin C

Molecule: stabilized cystatin C decamer (stab1, L47C/G69C) (from UniProt P01034 27-146) (complex)
inhibitory capacity toward legumain (fluorogenic substrate Z-Ala-Ala-Asn-AMC), equal mass concentrations [1]: 93%

Molecule: stabilized cystatin C trimer (stab1, L47C/G69C) (from UniProt P01034 27-146) (complex)
inhibitory capacity toward legumain (fluorogenic substrate Z-Ala-Ala-Asn-AMC), equal mass concentrations [1]: 99%

B2: human wild type cystatin C (natural protein, UniProt P01034 27-146, looked up)
chain: SSPGKPPRLVGGPMDASVEEEGVRRALDFAVGEYNKASNDMYHSRALQVVRARKQIVAGVNYFLDVELGRTTCTKTQPNLDNCPFHDQPHLKRKAFCSFQIYAVPWQGTMTLSKSTCQDA
notes: cystatin C, human, wild type; Mr 13,343; also called wt cystatin C; wt monomer; source: E. coli periplasmic extract, purified (ion-exchange, SEC), lyophilized
binding result [4]: binds

B3: L68Q cystatin C (natural protein, human, UniProt P01034 27-146, looked up)
chain: SSPGKPPRLVGGPMDASVEEEGVRRALDFAVGEYNKASNDMYHSRALQVVRARKQIVAGVNYFLDVEQGRTTCTKTQPNLDNCPFHDQPHLKRKAFCSFQIYAVPWQGTMTLSKSTCQDA
notes: cystatin C, human, hereditary cystatin C amyloid angiopathy variant L68Q; also called L68Q cystatin C variant; disease-associated L68Q variant
stoichiometry N [5]: 2

Continued, values first:

stoichiometry N (monomeric subunits) [2]: 4 and 3
stoichiometry N [3]: 2
Molecule: stab1 cystatin C (L47C/G69C), disulfide-stabilized monomer (from UniProt P01034 27-146) (natural protein)

stoichiometry N (monomeric subunits) [2]: 2
Molecule: stab1 cystatin C (L47C/G69C), disulfide-stabilized monomer (from UniProt P01034 27-146)

inhibitory capacity toward legumain (fluorogenic substrate Z-Ala-Ala-Asn-AMC), equal mass concentrations [1]: 102%
Molecule: stabilized cystatin C dimer (stab1, L47C/G69C) (from UniProt P01034 27-146) (complex)

inhibitory capacity toward legumain (fluorogenic substrate Z-Ala-Ala-Asn-AMC), equal mass concentrations [1]: 55%
B1: stabilized cystatin C high molecular weight oligomers (stab1, L47C/G69C) (complex)
chain: SSPGKPPRLVGGPMDASVEEEGVRRALDFAVGEYNKASNDMYHSRACQVVRARKQIVAGVNYFLDVELCRTTCTKTQPNLDNCPFHDQPHLKRKAFCSFQIYAVPWQGTMTLSKSTCQDA
modifications: intermolecular disulfide bridges (the paper: most likely Cys47-Cys69)
